Experimental data: the nanobody polyreactivity screen of Harvey et al. (2022)

Test: yeast display, Sf9 membrane polyspecificity reagent, FACS + sequencing; frameworks hold sequencing errors
Outline: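 Using colony PCR, genes from sorted yeast display clones were amplified, then sequenced on MiSeq at 2 × 250 and filtered by CDR length. The clones had been stained with 10% biotinylated, detergent-solubilized Sf9 membrane reagent for 1 hour at 4 °C and sorted by FACS into low and high (top ~1%) gates on anti-HA and streptavidin fluorescence. Polyreactivity labels come from the gate of origin.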

Sequence	polyreactivity (PSR sort gate)
QVQLVESGGGLVQAGGSLRLSCAASGSIFSYYAMGWYRQAPGKERELVAAISWGDDSTYYADSVKGRFTISRDNAKNTVYLQMNSLKPEDTAVYYCAADRVGWYRTFDYWGQGTQVTVSS	low polyreactivity
QVQLVESGGGLVQAGGSLRLSCAASGRIFHGYAMGWYRQAPGKERELVATIRSGGGTYYADSVKGRFTISRDNAKNSVYLQINSLKPDDTAVYYCNAQSSYSYFSGYDYWGQGSQVTVSS	low polyreactivity
QVQLVESGGGIVQAGGSLRLSCAASGRIFTQYTMGWYRQAPGKERELVAAINYSGGRTNYADSVKGRFTISRDIAKNTVYLQMNSLKPEDTAVYYCAAGYRRATYGYWGQGTQVTVSS	high polyreactivity
QVQLVESGGGLVQAGGSLRLSCAASGRTFRRNAMGWYRQAPGKERELVAAIRWSSGSTYYADSVNGRFTISRDNAKNTVYLQMNSLKPEDTAVYYCAADGDWYGYIWQSDDGYDSWGQGTQVTVSS	low polyreactivity
QVQLVESGGGLVQAGGSLRLSCAASGRIFVTYAMGLYRQAPGKERELVAVISWSGGSTYYADSVKGRFTISRDNAKNTVYLQMNSLKPEDTAVYYCARGLRKVRFDYWGQGTQVTVSS	low polyreactivity
QVQLVESGGGLVQAGGSLRLSCAASGITLDNYVMGWYRQAPGKERELVAAISRTSGRTYYADSVKGRFTISRDNAKNTVYLQMNSLKPEDTAVYYCAAETGYTIRYDYWGQGTQVTVSS	high polyreactivity
QVQLVESGGGLVQAGGSLRLSCAASGSTFDRYGMGWYRQAPGKERELVAAITWSVGSTYYADSVKGRFTISRDNAKNTVYLQMNSLKPEDTAVYYCNAGVLGVYTSYNGDDYWGQGTQVTVST	low polyreactivity
QVHLVESGGALVQAGGSLRLSCAASGNTFNANAMGWYRQAPGKERELVAVISANGGRTYYADSVKGRFTISRDNAKNTVYLQMNSLIPEDTAVYYCAADSSGEYPGGYWGQGTQVTVSS	low polyreactivity
QVQLVESGGGLVQAGGSLRLSCAASGNIFADYAMGWYRQAPGKERELVAAISRGGITSYADSVKGRFTISRDNAKNTVYLQMNSLKPEDTAVYYCATDRYDVYDSLGFGYWGQGTQVTVSS	low polyreactivity
HVQLVESGGGLVQAGGSLRLSCAASGSTFSYNAMGWYRQAPGKEWELVAAISWRGTSTYYADSVKGRFTISRDNAKKTVYLQMNSLKPEDTAVYYCAAPYGVSYKGATYDSWGQGTQVTVSS	high polyreactivity
QVQLVESGGGLVQAGGSLRLSCAASGRTFYDNAMGWYRQAPGKERELVAAISWSGGSTYADSVKGRFTISRDNAKNTVYLQMNSLKPEDTAVYYCNADAWLASGYRYDYWGQGTQVTVSS	low polyreactivity
QVQLVESGGGLVQAGGSLRLSCAASGIIFPFYAMGWYRQAPGKEREFVAAITSGDDTYYADSVKGRFTISRDNAKNTVYLQMNSLKPEDTAVYYCNKRLYIAGYWPQLYYIMDYWGQGTQVTVSS	low polyreactivity
QVQRVESGGGLVQAGGSLRLSCAASGYILPRYAMGWYIQAPGKERELVAAITSGGITSYADSVKGRFTISRDNAKNTVYLQMNSLKPEDTAVYYCAADWYVIYDYWGQGTQVTVSS	low polyreactivity
QVQLVESGGCLVQAGGSLRLSCAASGSTLWGYAMGWYRQAPGKERELVAAITSSGGITYYADSVKGRFTISRDNAKNTVYFQMNSLKPEDTAVYFCAVDYYVVGWTYLYYYWGQGTQVTVSS	low polyreactivity
QVQLVESGGGLVQAGGSLRLSCAASGRTLYYYGMGWYRQAPGKERELVASITNGGNTNYADSVKGRFTISRDNAKNTVYLQMNSLKPEDTAVYYCAKDVPYWRPVVRYDYWGQGTQVTVSS	low polyreactivity
QVQLVESGGGLVQAGGSLRLSCAASGSIFQYYAMGWYRQAPGKEREFVAAISSSGGSTYYADSVKGRFTISRDNAKNTVSLQMNSLKPEDNAVYYCNTPYNGFRFDYWGQGTQVTVSS	low polyreactivity
QVQLVESGAGLVQAGGILRLSCAASGRTFYRNTMGWYRQAPGKEREFVAAISATAGRTYYADSVKGRFTISRDNAKNTVYLQMNSLKPEDTAVYYCAAVPLRNRLPNSWPALDYWGQGTQVTVSS	high polyreactivity
QVQHVESGGGLVQAGGSLRLSCAASGRTYGYYAMGWYRQAPGKERELVAAITRTGGSTHYADSVKGRFTISRDNAKNTVYLQMNSLKPEDTAVYYFARTSRHVRYDYWGEGTQVTVSS	low polyreactivity
QVQLVESGGGLVQAGGSLRLSCAASGSIFVRNAMGWYRQAPGKERELVAADSVKGRFTISRDNAKNTVYLQMNSLKPEDTAVYYCNKDYIIRRGPIVYYGFDYWGQGTQVTVSS	low polyreactivity
QVQLVESGGGLVQAGGSLRLSCAASGITFRYYAMGWYRQAPGKERELVAAITRSGSTTYADSVKGRFTISRDNAKNTVYLQMNSLKPEDTAVYYCAVDYYYLTGGVDYWGQGTQVTVSS	low polyreactivity
QVQLVESGGGLVQAGGSLRLTCAASGSIFVNNAMGWYRQAPGKERELVAAISSRSSRTFYADSVKGRFTISRDNAKNTVYLQMNSLKPEDTAVYYCAVKKRAPDGDYWGQGTQVTVSS	high polyreactivity

Sequence	polyreactivity (PSR sort gate)
QVQLVESGGGLVQAGGSLRLSCAASGFTFTVYAMGWYRQAPGKERELVAVITSGDGTYYADSVKGRFTISRDNAKNTVYLQMHSLKPEDTAVYYCNARRYSSLRYRFAYDYWGQGTQVTESS	low polyreactivity
QVQLVESGGGLVQAGGSLRLSCAASGSTFGFYAMGWYRQAPGKERELVAAIDSGGSTYYADSVKGRFTISRDNAKNTVYLQMNSLKPEDTAVYYCAVRHRYTRAYWGRDYWGQGTQVTVSS	low polyreactivity
QVQRVESGGGLVQAGGSLRLSCAASGSTFLVNGMGWNRPAPGKERELVASITRDSSTYADSVKGRFTISRDNAKNTVYLQMNSLKPEDTAVYYCAATSRRRWSQQQGYGYYYWGQGTQVTVSS	high polyreactivity
QVQLEDSGGVLVQAGGSLRLSCAASGFIYRFYPMGWYRKAPGKERELVAGISSSGGSTYYADSVKGRFTISRDYAKNTVYLQMNSLKPEDTAVFYCNAKRSDQSYKTFNYWGQGTQVTVSS	low polyreactivity
QVQLVESGGGLVQAGVSLRLSCAASGSIFQSYDMGWYRQEPGKEREVVAAISWSGSTTYYADSVKGRFTLSRDNAKNTVYLQMNSLKPEDTAVYYCAVDSNPPDWWAVIYGFWGQGTQVTVSS	low polyreactivity
QVQLQESGGGLMQAGGSQRLSCAASGSISYYSDMGWYRQAPGKEREFVAGIGYGTTTNYADSVKGRFTTSRDNAKKTVYLQMISIKPEDTAVYYCAAYQGNGYEFYYWGQGTQVTVRS	low polyreactivity
QVQLVESGGGLVQAGGSLRLSCAASGRTFRTYTMGWYRQAPGKERELVAAISIGGRTNYADSVKGRFTISRDNAKNTVFLQMNSLKPEDTAVYYCIAARWVPRSYGYWGLGTQVTVSS	high polyreactivity
HVQLQESGGCLVQAGGSLRLSCAARGSNSRLDSMGWNRQASGKVRELVAAIDNGSTTYYADSVKGRLTISRDNAKYSVYLQMNSLKAEDTAVYFCAAVRGGGGTHAYWGQGTQVTVSG	low polyreactivity
QVQLVESGGGLVQAGGSLRLSCAASGRIFLVNAMGWYRQAPGKERELVAAISWSSGSTYYADSVKGSITISRDNAKNTVYLQMNSLKPEDTAVYYCAADGSSRGRYRYGYWGQGTQVTVSS	high polyreactivity
QVQLVESGGGLVQAGGSLRLSCAASGFTFGRNAMGWYRQAPGKERELVAAISRGGSTYYADSVKGRFTISRDNAKNTVYLQMNSLKPEDTAVYYCAAETFLKPQYFKKFGYWGQGTQVTVSS	high polyreactivity
QVQLVESGGGLVQAGGSLRLSCAASGRTFARYTMGWYRQAPGKERELVAAITSGGGSTYYADSVKGRFTISRDNAKNTVYLQMNSLKPEDTAVYYCNARRYYYITGRYGYWGQGTQVTVSS	high polyreactivity
QVQLVESGGGLVQAGGSLRLSCAASGSTFRQNAMGWYRQAPGKERELVAAISGTAGSTYYADSVKGRFTISRDNAKNTVYLQMNSLKPEDTAVYYCAKRKITKYGYGYWGQGTQVTVSS	high polyreactivity
QVQLVESGGGLVQAGGSLRLSSAASGRILYRYAMGWYRQAPGKESELVAAIYRSGGDTYYADSVKGRFTITRDNAKNTVYLQMNSLIPEDTAVYYCAASFEGSGYRYDYWGQGSQVTVSS	low polyreactivity
QVQLVESGGGLVQAGGSLRLSCAASGFIFDLYAMGWYRQAPGKERELVAAITYSGGSTYYADSVKGRFTISRDNAKNTVYLQMNSLKPEDTAVYYCATVEKFYEYDHWGQGTQVTVSS	low polyreactivity
QVQLVESGGGLVQAGGSLRFSSPASGLTFGTYAMGWYRQAPGKERELVAAISTSGVRTYYADSVKGRFTISRDIAKNTVYLQMNSLKPEDTAVYYCAARYNRAYSRDYWGQGSQVTVSS	high polyreactivity
QVQLVESGGGLVQAGGSLRLSCAASGRTFDRNAMGWYRQAPGKEREVVAAISSSSGSTYYADSVKGRFTISRDNAKNTVYLQMNSLKPEDTAVYYCATVRWYYSRPRPTTAYGYWGQGTQGTVSS	high polyreactivity
QVQLVESGGGLVQAGGSLRLSCAASGSTFLLYDMGWYRQAPGKERELVAAITWSGGSTYYADSVKGRFTISRDNAKNTVYLQMNSLKPEDTEVYYCAADSLGDRYYYWGQGTQVTVSS	low polyreactivity
QVQLVESGGGLVQAGGSLRLSCAASGRTFVYYTMGWYRQAPGKERELVAGIRRRGGRTYYADSVKGRFTISRDNAKNTVYLQMNSLKPEDTAVYYCAAQTRYQGYQEYYYWGQGTQVTVSS	high polyreactivity
QVQLVESGGGLVQAGGSLRLSCAASGRIFRWYAMGWYRQAPGKERELVATISSTGGSTYYADSVKGRFTISRDNAKNTDYLQMNSLKPEDTAVYDCNAVVYGIFLYAWYDYWGQGTQVTVSS	low polyreactivity
QVQLVESGGGLVQAGGSLRLSCAASGSTFGIYAMGWYRQAPGKERELVATISWGGGDTYYADSVKGRFTISRDNAKNTVYLQMNSLKPEDTAVYYCAADLWYGKTSGSTTPDPYDYWGQGTQVTVSS	low polyreactivity
